Test results: PMC8154130
Where two headings read alike, the source gives them in different places.

Columns and labels:
Assay in all cases: EMSA
[1] = molecular target: T1, C-terminal truncated DDX3X (1-582) (Homo sapiens, UniProt O00571)
[2] = molecular target: T1, C-terminal truncated DDX3X (1-582); remark: listed apart in the source
[3] = molecular target: T1, C-terminal truncated DDX3X (1-582); remark: listed apart in the source
[4] = molecular target: T1, C-terminal truncated DDX3X (1-582); remark: listed apart in the source
[5] = molecular target: T1, C-terminal truncated DDX3X (1-582); remark: listed apart in the source

## UUUUUUUUUUUUUUUUUUUUGGUGGUUGUG (ssRNA) [C]
[1]
  Kd: 217 ± 60 nM
[2]
  Kd: 298 ± 31 nM

B1: A:A (dsRNA)
RNA 1: GGCGGCCGCC
RNA 2: GGCGGCCGCC
[3]
  binding result: no binding

B2: B:B (dsRNA)
RNA 1: UUUUUUUUUUUUUUUUUUUUGGCGGCCGCC
RNA 2: UUUUUUUUUUUUUUUUUUUUGGCGGCCGCC
[4]
  Kd: 285 ± 18 nM
[5]
  Kd: 114 ± 10 nM

B3: D:E (dsRNA)
RNA 1: CUCAACUCAACCCUUCAUCUCAACUCAACCCUUCAU
RNA 2: AUGAAGGGUUGAGUUGAGAUGAAGGGUUGAGUUGAG
[3]
  binding result: no binding
